Measured values published in US20240279284A1 (KOREA ADVANCED INSTITUTE OF SCIENCE AND TECHNOLOGY, published 2024).

Columns and labels:
[1] = molecular target: BCL-xL, endogenous, in K562, HCT-116, SW620, MEWO and A375 cancer cells (Homo sapiens (Human)) (UniProt Q07817); test: cell-based or functional assay
[2] = molecular target: MCL-1, endogenous, in K562, HCT-116, SW620, MEWO and A375 cancer cells (Homo sapiens (Human)) (UniProt Q07820); test: cell-based or functional assay
[3] = molecular target: T1, MCL-1 (172-321), biotinylated, with C-terminal biotinylation sequence (Homo sapiens (Human), UniProt Q07820 172-321); test: SPR, ratio of KD values
Description: (§1) SPR data were collected on an 8 K device (GE Healthcare). A Series S Biotin CAPture kit (GE Healthcare) was used to immobilize biotinylated anti-apoptotic BCL-2 proteins, and all experiments were conducted in HBS-EP+buffer solution (10 mM HEPES, 150 mM NaCl, 3 mM EDTA, 0.005% Surfactant P20; GE Healthcare). Biotinylated anti-apoptotic BCL-2 proteins were immobilized on the CAP chip until the response units reached 100. Serially diluted analytes were injected at a flow rate of 30 μl/min. Analytes were used at 20 nM for single concentration experiments. Dissociation constants (KD) and kinetic parameters (Kₐ and Kd) were estimated using Biacore 8 K evaluation software (GE Healthcare).

[4] = molecular target: BCL-2 (1-34:chimeric loop:92-203), biotinylated, with C-terminal biotinylation sequence (UniProt P10415 1-34; P10415 92-203); test: SPR, biotinylated BCL-2 on CAP chip
Description: as §1

[5] = molecular target: T1, MCL-1 (172-321), biotinylated, with …; test: SPR, biotinylated MCL-1 on CAP chip
Description: as §1

[6] = molecular target: T2, BCL-B (1-177;C30S/C138S), biotinylated, with C-terminal biotinylation sequence (UniProt Q9HD36 1-177); test: SPR, biotinylated BCL-B on CAP chip; target BCL-B
T2 construct: range 1-177
T2 sequence: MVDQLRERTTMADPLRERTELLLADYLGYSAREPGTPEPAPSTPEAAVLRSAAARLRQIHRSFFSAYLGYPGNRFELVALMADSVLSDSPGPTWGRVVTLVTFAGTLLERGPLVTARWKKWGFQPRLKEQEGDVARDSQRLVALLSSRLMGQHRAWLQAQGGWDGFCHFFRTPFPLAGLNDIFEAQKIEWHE
Description: as §1

[7] = molecular target: T3, BCL-W (1-164), biotinylated, with C-terminal biotinylation sequence (UniProt Q92843 1-164); test: SPR, biotinylated BCL-W on CAP chip; target BCL-W
T3 sequence: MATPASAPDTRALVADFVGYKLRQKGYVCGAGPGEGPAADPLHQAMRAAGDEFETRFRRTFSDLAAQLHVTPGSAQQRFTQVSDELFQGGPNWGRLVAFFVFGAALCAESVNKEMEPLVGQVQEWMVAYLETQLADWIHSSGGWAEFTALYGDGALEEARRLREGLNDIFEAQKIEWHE
Description: as §1

[8] = molecular target: T4, BFL-1 (1-151;C4S/C19S), biotinylated, with C-terminal biotinylation sequence (UniProt Q16548 1-151); test: SPR, biotinylated BFL-1 on CAP chip; target BFL-1
T4 construct: range 1-151; also called BFL-1 (A1)
T4 sequence: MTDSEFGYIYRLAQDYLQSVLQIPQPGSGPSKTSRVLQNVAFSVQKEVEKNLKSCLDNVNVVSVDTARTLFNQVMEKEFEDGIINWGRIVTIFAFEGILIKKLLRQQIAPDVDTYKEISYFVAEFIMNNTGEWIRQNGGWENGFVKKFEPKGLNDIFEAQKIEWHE
Description: as §1

[9] = molecular target: T1, MCL-1 (172-321), biotinylated, with …; test: SPR, MCL-1 immobilized, analyte series from 5 to 320 nM
Description: as §1

[10] = molecular target: T5, BCL-xL (1-44:85-209), biotinylated, with C-terminal biotinylation sequence (Homo sapiens (Human), UniProt Q07817 1-209, biotin on the C-terminal biotinylation sequence … (co-expressed BirA)); test: SPR, BCL-xL immobilized, analyte series from 1.25 to 80 nM
T5 construct: Form immobilised on the CAP chip for SPR; Any purification tag from pJK hTx is not described
Description: as §1

MCL-1 (172-321) [11] = molecular target: T6, MCL-1 (172-321) (Homo sapiens (Human), UniProt Q07820 172-321); test: crystal structure
Description: Crystals were obtained by the hanging-drop vapor diffusion method at 20° C. […] The crystals were immersed briefly in a cryoprotectant solution. […] X-ray diffraction datasets were collected on beamline 5C at Pohang Accelerator Laboratory, South Korea. […] Then, automatic model building into the electron densities and structure refinement were performed using the PHENIX software suit. […] Iterative rounds of manual model building and refinement were carried out using the programs COOT and PHENIX. All structures were illustrated using the PYMOL software.

[12] = molecular target: T5, BCL-xL (1-44:85-209), biotinylated, …; test: SPR, ratio of KD values
Description: as §1

[13] = molecular target: T5, BCL-xL (1-44:85-209), biotinylated, …; test: SPR, biotinylated BCL-xL on CAP chip
Description: as §1

[14] = molecular target: T5, BCL-xL (1-44:85-209), biotinylated, …; test: SPR, different analyte concentrations, biotinylated BCL-xL on CAP chip
Description: as §1

MCL-1 (172-321) [15] = molecular target: T6, MCL-1 (172-321); test: size-exclusion chromatography (Superdex 75 Increase 10/300 GL), qualitative binding assay
[16] = molecular target: T5, BCL-xL (1-44:85-209), biotinylated, …; test: comparison of KD values (SPR)
[17] = molecular target: T1, MCL-1 (172-321), biotinylated, with …; test: comparison of KD values (SPR)

T5 sequence (Q07817 other isoform, or with tags, fused parts or gaps): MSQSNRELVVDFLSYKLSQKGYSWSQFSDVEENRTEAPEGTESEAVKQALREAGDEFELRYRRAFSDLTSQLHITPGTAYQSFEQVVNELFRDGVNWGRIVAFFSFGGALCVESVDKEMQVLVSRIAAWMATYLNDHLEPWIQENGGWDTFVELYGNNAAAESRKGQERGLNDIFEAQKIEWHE
BCL-xL, endogenous, in K562, HCT-116, SW620, MEWO and A375 cancer cells (Homo sapiens (Human)), sequence (Q07817 whole entry): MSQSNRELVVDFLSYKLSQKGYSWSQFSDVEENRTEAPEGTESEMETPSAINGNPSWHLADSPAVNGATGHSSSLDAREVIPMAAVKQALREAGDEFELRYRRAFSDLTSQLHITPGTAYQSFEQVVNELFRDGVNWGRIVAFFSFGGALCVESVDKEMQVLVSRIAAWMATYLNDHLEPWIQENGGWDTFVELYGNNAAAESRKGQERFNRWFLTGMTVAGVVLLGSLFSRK
T1 sequence (Q07820 other isoform, or with tags, fused parts or gaps): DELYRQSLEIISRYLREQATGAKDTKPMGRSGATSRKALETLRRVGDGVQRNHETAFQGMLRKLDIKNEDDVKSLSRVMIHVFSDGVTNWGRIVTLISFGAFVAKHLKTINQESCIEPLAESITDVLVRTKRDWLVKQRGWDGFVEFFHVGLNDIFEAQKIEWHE
T6 sequence (Q07820 172-321): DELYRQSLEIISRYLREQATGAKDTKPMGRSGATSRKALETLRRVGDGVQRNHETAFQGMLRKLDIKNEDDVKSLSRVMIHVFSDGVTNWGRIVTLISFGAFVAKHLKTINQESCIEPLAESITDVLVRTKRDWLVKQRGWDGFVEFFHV
BCL-2 (1-34:chimeric loop:92-203), biotinylated, with C-terminal biotinylation sequence, sequence (P10415 other isoform, or with tags, fused parts or gaps mutant): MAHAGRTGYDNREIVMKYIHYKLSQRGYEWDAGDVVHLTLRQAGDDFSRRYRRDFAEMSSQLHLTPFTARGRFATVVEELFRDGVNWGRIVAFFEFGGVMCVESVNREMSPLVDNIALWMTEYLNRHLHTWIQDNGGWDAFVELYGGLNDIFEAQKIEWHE

B1: 4H_αBM_3_CTS, 3×FLAG-tagged, expressed in cancer cell lines by lentivirus (designed binder, not shown: small tags and cut ends)
chain: MDAKKVAKKAAIQAARRITELAQVLVELLKEALKLDLTQEMRKKLIERYAAAIIRAIGDINNAIYQAKQEAEKLKKAGLVDSDQLDALLRALDELQKVASKAANQLGRLFEEALKRLDKDNGGEEEKDRTAKWFEFEARAIELALRLAAIGDVFDLEKEWRKLKPRMVILRLLRYIVRLVWRMH
- cell viability (WST-1), A375 cells [1]: 11%
- cell viability (WST-1), HCT-116 cells [1]: 50%
- cell viability (WST-1), K562 cells [1]: 33%
- cell viability (WST-1), MEWO cells [1]: 33%
- cell viability (WST-1), SW620 cells [1]: 27%
- cell viability (WST-1), A375 cells [2]: 11%
- cell viability (WST-1), HCT-116 cells [2]: 50%
- cell viability (WST-1), K562 cells [2]: 33%
- cell viability (WST-1), MEWO cells [2]: 33%
- cell viability (WST-1), SW620 cells [2]: 27%

B2: 4H_αBM_2 (I143L/I54E/G58E) (designed binder)
chain: MDAKKVAKKAAIQAARRITELAQVLVELLKEALKLDLTQEMRKKLIERYAAAIERAIEDINNAIYQAKQEAEKLKKAGLVDSDQLDALLRALDELQKVASKAANQLGRLFEEALKRLDKDNGGEEEKDRTAKWFEFEARAIELALRLAAIGDVFDLEKEWRKLK
notes: also called 4H_αBM_3 (I54E/G58E)
- fold reduced affinity (against 4H_αBM_2 (I54E/G58E)) [3]: ~7 fold
- Kd [4]: 2.04 nM
- Kd [5]: 133 nM
- Kd [6]: 146 nM
- Kd [7]: 1.59 nM
- Kd [8]: 16.4 nM
- Kd [9]: 113 nM
- Kd [10]: 0.82 nM

B3: 4H_αBM_2 (designed binder)
chain: MDAKKVAKKAAIQAARRITELAQVLVELLKEALKLDLTQEMRKKLIERYAAAIIRAIGDINNAIYQAKQEAEKLKKAGLVDSDQLDALLRALDELQKVASKAANQLGRLFEEALKRLDKDNGGEEEKDRTAKWFEFEARAIEIALRLAAIGDVFDLEKEWRKLK
- binding result (MCL-1 (172-321) [11]): binds
- fold stronger binding than 4H_αBM_1 [12]: 40 fold
- Kd [13]: 0.21 nM

B4: 4H_αBM_1 (designed binder)
chain: MDAKKVAKKAADQAANRIRELAQVLVELLKEALKLDLTQEMRKKLIERYAAAIIRAIGDINNAIYQAKQEAEKLKKAGLVDSDQLDALLRALDELQKVASKAANQLGRLFEEALKRLDKDNGGEEEKDRTAKWFEFEARAIAIALTLAAIGDVFDLEKEWRKLK
notes: also called D81
- Kd [14]: 8.57 nM
- binding result (MCL-1 (172-321) [15]): binds

B5: 4H_αBM_3 (designed binder)
chain: MDAKKVAKKAAIQAARRITELAQVLVELLKEALKLDLTQEMRKKLIERYAAAIIRAIGDINNAIYQAKQEAEKLKKAGLVDSDQLDALLRALDELQKVASKAANQLGRLFEEALKRLDKDNGGEEEKDRTAKWFEFEARAIELALRLAAIGDVFDLEKEWRKLK
notes: also called 4H_αBM_2 (I143L)
- fold higher binding affinity than human BIM BH3 [16]: > 8 fold
- fold higher binding affinity than human BIM BH3 [17]: > 8 fold

B6: 4H_αBM_2 (I54E/G58E) (designed binder)
chain: MDAKKVAKKAAIQAARRITELAQVLVELLKEALKLDLTQEMRKKLIERYAAAIERAIEDINNAIYQAKQEAEKLKKAGLVDSDQLDALLRALDELQKVASKAANQLGRLFEEALKRLDKDNGGEEEKDRTAKWFEFEARAIEIALRLAAIGDVFDLEKEWRKLK
notes: also called 4H_αBM_2 (154E/G58E)
- Kd [5]: 19.2 nM
